Here are results for one molecule from paper PMC3972757 (Biochemistry, 2013).

This assay deals with ubiquitin (human, UniProt P0CG47 1-76). Put plainly: ITC. (In ITC the heat of successive injections is recorded.)

B1: Phe320Ala mutant of the catalytic domain of AMSH (domain or fragment, human, UniProt O95630 219-424, looked up)
chain: SDCHTTVRPAKPPVVDRSLKPGALSNSESIPTIDGLRHVVVPGRLCPQFLQLASANTARGVETCGILCGKLMRNEFTITHVLIPKQSAGSDYCNTENEEELALIQDQQGLITLGWIHTHPTQTAFLSSVDLHTHCSYQMMLPESVAIVCSPKFQETGFFKLTDHGLEEISSCRQKGFHPHSKDPPLFCSCSHVTVVDRAVTITDLR
As usually defined, the Kd is a measure of binding affinity in units of concentration. Higher therefore signals lower affinity. Take B1: the Kd is 81 ± 15 µM.
